# B1: MgtE transmembrane (TM) domain from Thermus thermophilus (domain or fragment, T. thermophilus, UniProt Q5SMG8 268-450, looked up)
# chain: VPDLVYSEAGPVALWLARVRWLVILILTGMVTSSILQGFESVLEAVTALAFYVPVLLGTGGNTGNQSATLIIRALATRDLDLRDWRRVFLKEMGVGLLLGLTLSFLLVGKVYWDGHPLLLPVVGVSLVLIVFFANLVGAMLPFLLRRLGVDPALVSNPLVATLSDVTGLLIYLSVARLLLEAV
# Key:
# [1] = molecular target: MgtE T336C/L421C mutant lacking the N domain (T. thermophilus) (UniProt Q5SMG8); assay: cross-linking
# [2] = molecular target: the molecule itself; assay: crystal structure
Molecule,stoichiometry N [1],binding result [2]
MgtE T336C/L421C mutant lacking the N domain (from UniProt Q5SMG8 130-450) (domain or fragment),2,–
B1,–,binds

# Source: doi:10.1101/2021.12.29.474488 (bioRxiv, 2021)
